B1: NOTCH4 peptide 1606-1621 (Neurogenic locus notch homolog protein 4), 16-mer library wild type / NSP9 (ORF1ab Nsp9, residues 4141-4253) (parent complex)
chain 1: QGAWLGAPEPWEPLLD
chain 2: NNELSPVALRQMSCAAGTTQTACTDDNALAYYNTTKGGRFVLALLSDLQDLKWARFPKSDGTGTIYTELEPPCRFVTDTPKGPKVKYLYFIKGLNNLNRGMVLGSLAATVRLQ

Variants of B1 are the subject of this assay. Description: bait immobilised on MaxiSorp plates (10 µg), library pre-cleared on GST, 2 h binding at 4 °C, five washes; one round per day, days 1-4; value from days 2 and 3.
As for chain 1 QGAWLGAPAPWEPLLD [chain 1 E9A], the screen value is 0.000237 average fractional NGS count over selection days 2 and 3 (reads of this peptide / all reads for the bait, averaged over ….

As to chain 1 QGAWLGAPYPWEPLLD [chain 1 E9Y], the screen value was 0.000233 average fractional NGS count over selection days 2 and 3 (reads of this peptide / all reads for the bait, averaged over ….

For the variant chain 1 QGAWLGAPKPWEPLLD [chain 1 E9K], the screen value was 0.000266 average fractional NGS count over selection days 2 and 3 (reads of this peptide / all reads for the bait, averaged over ….

chain 1 QGAWLGAPGPWEPLLD [chain 1 E9G]: the screen value was 0.00198 average fractional NGS count over selection days 2 and 3 (reads of this peptide / all reads for the bait, averaged over ….

Turning to chain 1 QGAWLGAPWPWEPLLD [chain 1 E9W], the screen value was 0.00272 average fractional NGS count over selection days 2 and 3 (reads of this peptide / all reads for the bait, averaged over ….

Turning to chain 1 QGAWLGAPTPWEPLLD [chain 1 E9T], the screen value is 0.00217 average fractional NGS count over selection days 2 and 3 (reads of this peptide / all reads for the bait, averaged over ….

As to chain 1 QGAWLGAPIPWEPLLD [chain 1 E9I], the screen value is 0.00116 average fractional NGS count over selection days 2 and 3 (reads of this peptide / all reads for the bait, averaged over ….

As for chain 1 QGAWLGAPLPWEPLLD [chain 1 E9L], the screen value was 0.0321 average fractional NGS count over selection days 2 and 3 (reads of this peptide / all reads for the bait, averaged over ….

Consider chain 1 QGAWIGAPEPWEPLLD [chain 1 L5I], for which the screen value is 0.000857 average fractional NGS count over selection days 2 and 3 (reads of this peptide / all reads for the bait, averaged over ….

chain 1 QGAWLGAPEPEEPLLD [chain 1 W11E]: the screen value is 0.00215 average fractional NGS count over selection days 2 and 3 (reads of this peptide / all reads for the bait, averaged over ….

For chain 1 QGAWLGAPEPSEPLLD [chain 1 W11S], the screen value was 0.000466 average fractional NGS count over selection days 2 and 3 (reads of this peptide / all reads for the bait, averaged over ….

chain 1 QGAWLGAPEPTEPLLD [chain 1 W11T]: the screen value is 0.000139 average fractional NGS count over selection days 2 and 3 (reads of this peptide / all reads for the bait, averaged over ….

On to chain 1 QGAWLGAPEPMEPLLD [chain 1 W11M], for which the screen value is 0.0273 average fractional NGS count over selection days 2 and 3 (reads of this peptide / all reads for the bait, averaged over ….

chain 1 QGAWLGAPEPHEPLLD [chain 1 W11H]: the screen value is 0.00345 average fractional NGS count over selection days 2 and 3 (reads of this peptide / all reads for the bait, averaged over ….

As to chain 1 QGAWLGAPEPLEPLLD [chain 1 W11L], the screen value was 0.0119 average fractional NGS count over selection days 2 and 3 (reads of this peptide / all reads for the bait, averaged over ….

Regarding chain 1 QGAWLGAPEPDEPLLD [chain 1 W11D], the screen value was 0.000384 average fractional NGS count over selection days 2 and 3 (reads of this peptide / all reads for the bait, averaged over ….

As for chain 1 QGAYLGAPEPWEPLLD [chain 1 W4Y], the screen value was 0.000452 average fractional NGS count over selection days 2 and 3 (reads of this peptide / all reads for the bait, averaged over ….

chain 1 QGAWLGAPEPWEILLD [chain 1 P13I]: the screen value was 0.00354 average fractional NGS count over selection days 2 and 3 (reads of this peptide / all reads for the bait, averaged over ….

chain 1 QGAWLGAPEPWEHLLD [chain 1 P13H]: the screen value was 0.000211 average fractional NGS count over selection days 2 and 3 (reads of this peptide / all reads for the bait, averaged over ….

On to chain 1 QGAWLGAPEPWEGLLD [chain 1 P13G], for which the screen value is 0.00615 average fractional NGS count over selection days 2 and 3 (reads of this peptide / all reads for the bait, averaged over ….

Consider chain 1 QGAWLGAPEPWEELLD [chain 1 P13E], for which the screen value was 0.000762 average fractional NGS count over selection days 2 and 3 (reads of this peptide / all reads for the bait, averaged over ….

Take chain 1 QGAWLGAPEPWEKLLD [chain 1 P13K]: the screen value was 0.00839 average fractional NGS count over selection days 2 and 3 (reads of this peptide / all reads for the bait, averaged over ….

Regarding chain 1 QGAWLGAPEPWEYLLD [chain 1 P13Y], the screen value was 0.000242 average fractional NGS count over selection days 2 and 3 (reads of this peptide / all reads for the bait, averaged over ….

For the variant chain 1 QGAWLGAPEPWEWLLD [chain 1 P13W], the screen value was 0.000306 average fractional NGS count over selection days 2 and 3 (reads of this peptide / all reads for the bait, averaged over ….

Regarding chain 1 QGAWLGAPEPWEQLLD [chain 1 P13Q], the screen value is 0.000154 average fractional NGS count over selection days 2 and 3 (reads of this peptide / all reads for the bait, averaged over ….

Consider chain 1 TGAWLGAPEPWEPLLD [chain 1 Q1T], for which the screen value is 0.000204 average fractional NGS count over selection days 2 and 3 (reads of this peptide / all reads for the bait, averaged over ….

As for chain 1 YGAWLGAPEPWEPLLD [chain 1 Q1Y], the screen value was 0.00151 average fractional NGS count over selection days 2 and 3 (reads of this peptide / all reads for the bait, averaged over ….

Take chain 1 EGAWLGAPEPWEPLLD [chain 1 Q1E]: the screen value was 0.00488 average fractional NGS count over selection days 2 and 3 (reads of this peptide / all reads for the bait, averaged over ….

chain 1 IGAWLGAPEPWEPLLD [chain 1 Q1I]: the screen value is 0.000162 average fractional NGS count over selection days 2 and 3 (reads of this peptide / all reads for the bait, averaged over ….

Regarding chain 1 HGAWLGAPEPWEPLLD [chain 1 Q1H], the screen value is 0.000824 average fractional NGS count over selection days 2 and 3 (reads of this peptide / all reads for the bait, averaged over ….

As to chain 1 LGAWLGAPEPWEPLLD [chain 1 Q1L], the screen value was 0.000598 average fractional NGS count over selection days 2 and 3 (reads of this peptide / all reads for the bait, averaged over ….

Take chain 1 AGAWLGAPEPWEPLLD [chain 1 Q1A]: the screen value was 0.00674 average fractional NGS count over selection days 2 and 3 (reads of this peptide / all reads for the bait, averaged over ….

chain 1 QGFWLGAPEPWEPLLD [chain 1 A3F]: the screen value is 0.00137 average fractional NGS count over selection days 2 and 3 (reads of this peptide / all reads for the bait, averaged over ….

chain 1 QGYWLGAPEPWEPLLD [chain 1 A3Y]: the screen value was 0.00272 average fractional NGS count over selection days 2 and 3 (reads of this peptide / all reads for the bait, averaged over ….

For the variant chain 1 QGMWLGAPEPWEPLLD [chain 1 A3M], the screen value is 0.0101 average fractional NGS count over selection days 2 and 3 (reads of this peptide / all reads for the bait, averaged over ….

In the case of chain 1 QGAWLGHPEPWEPLLD [chain 1 A7H], the screen value was 0.0144 average fractional NGS count over selection days 2 and 3 (reads of this peptide / all reads for the bait, averaged over ….

For the variant chain 1 QGAWLGEPEPWEPLLD [chain 1 A7E], the screen value was 0.000192 average fractional NGS count over selection days 2 and 3 (reads of this peptide / all reads for the bait, averaged over ….

Turning to chain 1 QGAWLGGPEPWEPLLD [chain 1 A7G], the screen value was 0.00198 average fractional NGS count over selection days 2 and 3 (reads of this peptide / all reads for the bait, averaged over ….

As to chain 1 QGAWLGDPEPWEPLLD [chain 1 A7D], the screen value is 0.00053 average fractional NGS count over selection days 2 and 3 (reads of this peptide / all reads for the bait, averaged over ….

For the variant chain 1 QGAWLGRPEPWEPLLD [chain 1 A7R], the screen value was 0.000186 average fractional NGS count over selection days 2 and 3 (reads of this peptide / all reads for the bait, averaged over ….

Take chain 1 QGAWLGQPEPWEPLLD [chain 1 A7Q]: the screen value was 0.00107 average fractional NGS count over selection days 2 and 3 (reads of this peptide / all reads for the bait, averaged over ….

chain 1 QGAWLGAPEPWEPMLD [chain 1 L14M]: the screen value was 0.00305 average fractional NGS count over selection days 2 and 3 (reads of this peptide / all reads for the bait, averaged over ….

As to chain 1 QGAWLGAPEPWEPYLD [chain 1 L14Y], the screen value was 0.00146 average fractional NGS count over selection days 2 and 3 (reads of this peptide / all reads for the bait, averaged over ….

In the case of chain 1 QGAWLGAPEPWEPALD [chain 1 L14A], the screen value was 0.00317 average fractional NGS count over selection days 2 and 3 (reads of this peptide / all reads for the bait, averaged over ….

Take chain 1 QGAWLGAPEPWEPTLD [chain 1 L14T]: the screen value was 0.00105 average fractional NGS count over selection days 2 and 3 (reads of this peptide / all reads for the bait, averaged over ….

As to chain 1 QGAWLGAPEPWEPLPD [chain 1 L15P], the screen value was 0.000417 average fractional NGS count over selection days 2 and 3 (reads of this peptide / all reads for the bait, averaged over ….

For chain 1 QGAWLGAPEPWEPLRD [chain 1 L15R], the screen value is 0.000322 average fractional NGS count over selection days 2 and 3 (reads of this peptide / all reads for the bait, averaged over ….

On to chain 1 QGAWLGAPEPWEPLDD [chain 1 L15D], for which the screen value was 0.000339 average fractional NGS count over selection days 2 and 3 (reads of this peptide / all reads for the bait, averaged over ….

Consider chain 1 QGAWLGAPEPWEPLFD [chain 1 L15F], for which the screen value is 0.000114 average fractional NGS count over selection days 2 and 3 (reads of this peptide / all reads for the bait, averaged over ….

On to chain 1 QGAWLGAPEPWEPLID [chain 1 L15I], for which the screen value was 0.0135 average fractional NGS count over selection days 2 and 3 (reads of this peptide / all reads for the bait, averaged over ….

chain 1 QGAWLGAMEPWEPLLD [chain 1 P8M]: the screen value is 0.00044 average fractional NGS count over selection days 2 and 3 (reads of this peptide / all reads for the bait, averaged over ….

As for chain 1 QGAWLGAIEPWEPLLD [chain 1 P8I], the screen value was 0.000952 average fractional NGS count over selection days 2 and 3 (reads of this peptide / all reads for the bait, averaged over ….

As for chain 1 QGAWLGASEPWEPLLD [chain 1 P8S], the screen value is 0.00076 average fractional NGS count over selection days 2 and 3 (reads of this peptide / all reads for the bait, averaged over ….

Turning to chain 1 QGAWLGAEEPWEPLLD [chain 1 P8E], the screen value was 0.000231 average fractional NGS count over selection days 2 and 3 (reads of this peptide / all reads for the bait, averaged over ….

Turning to chain 1 QGAWLGAFEPWEPLLD [chain 1 P8F], the screen value was 0.000628 average fractional NGS count over selection days 2 and 3 (reads of this peptide / all reads for the bait, averaged over ….

As for chain 1 QGAWLGAPEKWEPLLD [chain 1 P10K], the screen value is 0.00223 average fractional NGS count over selection days 2 and 3 (reads of this peptide / all reads for the bait, averaged over ….

With chain 1 QGAWLGAPEHWEPLLD [chain 1 P10H], the screen value was 0.000471 average fractional NGS count over selection days 2 and 3 (reads of this peptide / all reads for the bait, averaged over ….

Regarding chain 1 QGAWLGAPENWEPLLD [chain 1 P10N], the screen value was 0.000425 average fractional NGS count over selection days 2 and 3 (reads of this peptide / all reads for the bait, averaged over ….

For chain 1 QGAWLGAPEMWEPLLD [chain 1 P10M], the screen value was 0.0078 average fractional NGS count over selection days 2 and 3 (reads of this peptide / all reads for the bait, averaged over ….

For the variant chain 1 QGAWLGAPELWEPLLD [chain 1 P10L], the screen value is 0.00033 average fractional NGS count over selection days 2 and 3 (reads of this peptide / all reads for the bait, averaged over ….

As to chain 1 QGAWLGAPEWWEPLLD [chain 1 P10W], the screen value is 0.00034 average fractional NGS count over selection days 2 and 3 (reads of this peptide / all reads for the bait, averaged over ….

For chain 1 QGAWLGAPERWEPLLD [chain 1 P10R], the screen value was 0.00113 average fractional NGS count over selection days 2 and 3 (reads of this peptide / all reads for the bait, averaged over ….

Take chain 1 QGAWLGAPESWEPLLD [chain 1 P10S]: the screen value is 0.000591 average fractional NGS count over selection days 2 and 3 (reads of this peptide / all reads for the bait, averaged over ….

(Values after PMC12102759 (2025).)
